{"source": "paper PMC4254451", "about": "“The Crystal Structures of Apo and cAMP-Bound GlxR from Corynebacterium glutamicum Reveal Structural and Dynamic Changes upon cAMP Binding in CRP/FNR Family Transcription Factors”", "binders": {"B1": {"name": "FITC-labelled 26-mer duplex (dsDNA)", "DNA 1": "ATTAATGTGAGTTAGCTCACTCATTA", "DNA 2": "TAATGAGTGAGCTAACTCACATTAAT"}}, "target": "T1, GlxR (Cg-GlxR) (Corynebacterium glutamicum, UniProt Q79VI7 1-227)", "T1 sequence": "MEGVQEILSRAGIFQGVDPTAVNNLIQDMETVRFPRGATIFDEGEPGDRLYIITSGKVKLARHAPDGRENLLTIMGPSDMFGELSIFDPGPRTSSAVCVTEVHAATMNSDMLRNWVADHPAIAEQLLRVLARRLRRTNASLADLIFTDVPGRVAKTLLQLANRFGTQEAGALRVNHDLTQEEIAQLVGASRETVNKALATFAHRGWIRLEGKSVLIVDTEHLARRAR", "test": "fluorescence anisotropy; 1.5 mM cAMP; 100 mM KH2PO4 pH 7.8, 200 mM KCl, 1 mM 1-thioglycerol, 0 or 1.5 mM cAMP, 5 nM labelled DNA; temperature not stated", "details": "protein: recombinant; tags: His6 (N-terminal, pET16b); chain copies: 2; label: 5'-FITC on strand 1; blunt", "data": [{"binder": "B1", "values": [{"measurement": "Kd", "result": 87, "unit": "nM"}]}]}
